Data set [1] deals with microtubules (native, from pig brain tubulin) (pig) (UniProt P02550). The experiment in a line: co-sedimentation; constant microtubule concentration (1 µM for spastin, 2 µM for katanin), increasing enzyme; 1 mM ATP-γS; BRB80, room temperature, 100,000 g; stoichiometry by extrapolation of the saturation curve.
The target is the same in data set [2]. The experiment in a line: co-sedimentation; constant microtubule concentration (1 µM for spastin, 2 µM for katanin), increasing enzyme; 1 mM ATP; BRB80, room temperature, 100,000 g; stoichiometry by extrapolation of the saturation curve.
Data set [3] shares this target. The experiment in a line: co-sedimentation; constant microtubule concentration (1 µM for spastin, 2 µM for katanin), increasing enzyme; 1 mM ADP; BRB80, room temperature, 100,000 g; stoichiometry by extrapolation of the saturation curve.
Data set [4] shares this target. The experiment in a line: single-molecule TIRF microscopy; microtubules attached to the flow cell by anti-tubulin antibody; 5–10 nM GFP-enzyme in solution; 1 mM AMPPNP; landing rates and dwell times from kymographs; dwell times are lower limits. Conditions: for landing rate: scale: (10 µm)^−1 ·.
The target is the same in data set [5]. The experiment in a line: single-molecule TIRF microscopy; microtubules attached to the flow cell by anti-tubulin antibody; 5–10 nM GFP-enzyme in solution; 1 mM ATP-γS; landing rates and dwell times from kymographs. Conditions: for landing rate: scale: (10 µm)^−1 ·.
The target is the same in data set [6]. The experiment in a line: single-molecule TIRF microscopy; microtubules attached to the flow cell; 10 nM GFP-enzyme; buffer 5 with 80 mM NaCl (ionic strength 0.145 M); 1 mM ATP; dwell time is a mean, not an exponential fit. As to conditions: for landing rate: scale: (10 µm)^−1 ·.
The target is the same in data set [7]. The experiment in a line: single-molecule TIRF microscopy; microtubules attached to the flow cell by anti-tubulin antibody; 5–10 nM GFP-enzyme in solution; 1 mM ATP; landing rates and dwell times from kymographs. As to conditions: for landing rate: scale: (10 µm)^−1 ·.
Data set [8] has the same target. The experiment in a line: single-molecule TIRF microscopy; microtubules attached to the flow cell; 10 nM GFP-enzyme; buffer 5 with 300 mM NaCl (ionic strength 0.365 M); 1 mM ATP; mono-exponential lifetime. As to conditions: for landing rate: scale: (10 µm)^−1 ·.
Data set [9] has the same target. The experiment in a line: single-molecule TIRF microscopy; microtubules attached to the flow cell; 10 nM GFP-enzyme; buffer 5 with 160 mM NaCl (ionic strength 0.225 M); 1 mM ATP; mono-exponential lifetime. Conditions: for landing rate: scale: (10 µm)^−1 ·.
The target is the same in data set [10]. The experiment in a line: co-sedimentation; fixed E309Q-katanin concentration, variable microtubule concentrations (native or subtilisin-treated, up to 4 µM); 100,000 g, BRB80, room temperature; SDS-PAGE of supernatants and pellets.
The target of data set [11] is subtilisin-treated microtubules (pig) (UniProt P02550). The data set is described as above.
Data set [12] concerns the molecule itself. The experiment in a line: non-reducing SDS-PAGE; coiled coil wild type construct under oxidizing conditions (omission of reducing agents), compared with 1 mM mercapto-ethanol.
For data set [13], the target named is microtubules (native, from pig brain tubulin) (pig) (UniProt P02550). The experiment in a line: co-sedimentation; fixed katanin construct concentration (1 µM), increasing microtubule concentrations (0 to 10 µM); band density fitted to a Hill function.

This is an account of results in paper PMC3521757, “Spastin's Microtubule-Binding Properties and Comparison to Katanin” (PLoS ONE, 2012).

Sequence of subtilisin-treated microtubules (pig) (P02550 whole entry, chain 1 of 2): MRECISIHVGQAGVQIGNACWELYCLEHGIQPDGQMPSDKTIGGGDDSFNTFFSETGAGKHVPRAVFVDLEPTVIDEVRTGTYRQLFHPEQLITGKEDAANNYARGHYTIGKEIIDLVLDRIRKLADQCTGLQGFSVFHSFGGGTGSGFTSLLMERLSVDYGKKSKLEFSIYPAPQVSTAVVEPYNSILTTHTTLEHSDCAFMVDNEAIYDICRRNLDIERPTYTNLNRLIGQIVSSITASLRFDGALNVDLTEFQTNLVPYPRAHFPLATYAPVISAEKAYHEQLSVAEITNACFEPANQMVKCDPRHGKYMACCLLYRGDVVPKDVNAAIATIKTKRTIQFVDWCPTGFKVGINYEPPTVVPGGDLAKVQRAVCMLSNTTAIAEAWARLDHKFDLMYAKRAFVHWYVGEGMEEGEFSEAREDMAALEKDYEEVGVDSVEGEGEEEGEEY
Sequence of subtilisin-treated microtubules (pig) (Q767L7 whole entry, chain 2 of 2, further chain): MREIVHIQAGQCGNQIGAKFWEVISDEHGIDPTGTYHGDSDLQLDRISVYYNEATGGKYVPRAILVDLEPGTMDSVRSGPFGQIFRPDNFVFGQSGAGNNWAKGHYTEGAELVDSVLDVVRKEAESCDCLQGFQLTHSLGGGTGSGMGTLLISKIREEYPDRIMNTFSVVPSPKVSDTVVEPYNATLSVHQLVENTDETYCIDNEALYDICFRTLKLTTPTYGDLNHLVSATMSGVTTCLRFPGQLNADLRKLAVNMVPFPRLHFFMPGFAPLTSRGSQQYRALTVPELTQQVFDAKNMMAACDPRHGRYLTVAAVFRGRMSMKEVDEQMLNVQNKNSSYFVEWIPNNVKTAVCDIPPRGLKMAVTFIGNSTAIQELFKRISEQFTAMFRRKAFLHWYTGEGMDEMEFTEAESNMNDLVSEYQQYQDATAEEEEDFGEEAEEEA

Regarding “spastin E442Q mutant (from UniProt Q9UBP0 227-616) (domain or fragment)”, the stoichiometry N (enzyme∶tubulin) in data set [1] is 2.2; in [2], 2.7; in data set [3] it was 1.3.

“wild type spastin (co-sedimentation assays) (from UniProt Q9UBP0 227-616) (domain or fragment)”: the results for the stoichiometry N (enzyme∶tubulin) in [1] and in [3] were 2.1 and 1.4, respectively.

As to “GFP-FLAG HsKatanin (full-length katanin p60) (from UniProt O75449 1-491) (enzyme)”, the stoichiometry N (enzyme∶tubulin) in [1] is 2.8; in data set [3], 1.1. Besides, the dwell time was above 246 s in data set [4]; 10.1 s in data set [5]; 7.3 s in data set [6]; 4.02 s in data set [7]; 2.5 s in data set [8]; 5.6 s in [9]. Also, the koff/kon was 0.118 10 nM 10 µm in data set [4]; 0.684 10 nM 10 µm in [5]; 0.609 10 nM 10 µm in data set [6]; 1.06 10 nM 10 µm in data set [7]; 13.6 10 nM 10 µm in [8]; 2.82 10 nM 10 µm in [9]. In addition, the landing rate in data set [4] turned out to be 2.06; in data set [5], 8.73; in data set [6], 15.8; in data set [7], 14.1; in [8], 1.93; in data set [9], 4.64.

As for “katanin E309Q (Walker B mutant) (from UniProt O75449 1-491) (enzyme)”, the stoichiometry N (enzyme∶tubulin) in [1] was 2.8; in data set [2] it was 3; in data set [3] it was 1.1. Further, in data set [10], the half-maximal saturation (microtubule concentration) amounted to 0.4 µM. For the same molecule, the fold reduction of affinity against native microtubules in [11] was above 10 fold. Further, the fraction bound at 4 µM microtubules in data set [11] is below 0.33.

B1: coiled-coil-Δ227 HsSpastin construct (wild type) (other)
chain: AEECKRRYEKEKEKNARLKGKVEKLEIELARWRASESGAVPKRKDPLTHTSNSLPRSKTVMKTGSAGLSGHHRAPSYSGLSMVSGVKQGSGPAPTTHKGTPKTNRTNKPSTPTTATRKKKDLKNFRNVDSNLANLIMNEIVDNGTAVKFDDIAGQDLAKQALQEIVILPSLRPELFTGLRAPARGLLLFGPPGNGKTMLAKAVAAESNATFFNISAASLTSKYVGEGEKLVRALFAVARELQPSIIFIDEVDSLLCERREGEHDASRRLKTEFLIEFDGVQSAGDDRVLVMGATNRPQELDEAVLRRFIKRVYVSLPNEETRLLLLKNLLCKQGSPLTQKELAQLARMTDGYSGSDLTALAKDAALGPIRELKPEQVKNMSASEMRNIRLSDFTESLKKIKRSVSPQTLEAYIRWNKDFGDTTV
modifications: disulphide bridge between the cysteines introduced in the coiled coil domain (oxidizing conditions)
In the case of B1, in [12], the “stoichiometry N” value was determined as 2.

B2: GFP-Δ227 HsSpastin (domain or fragment)
chain: SESGAVPKRKDPLTHTSNSLPRSKTVMKTGSAGLSGHHRAPSYSGLSMVSGVKQGSGPAPTTHKGTPKTNRTNKPSTPTTATRKKKDLKNFRNVDSNLANLIMNEIVDNGTAVKFDDIAGQDLAKQALQEIVILPSLRPELFTGLRAPARGLLLFGPPGNGKTMLAKAVAAESNATFFNISAASLTSKYVGEGEKLVRALFAVARELQPSIIFIDEVDSLLCERREGEHDASRRLKTEFLIEFDGVQSAGDDRVLVMGATNRPQELDEAVLRRFIKRVYVSLPNEETRLLLLKNLLCKQGSPLTQKELAQLARMTDGYSGSDLTALAKDAALGPIRELKPEQVKNMSASEMRNIRLSDFTESLKKIKRSVSPQTLEAYIRWNKDFGDTTV
For B2, the dwell time is above 254 s in [4]; 55.7 s in data set [5]; 9.6 s in data set [6]; 10.1 s in data set [7]; 4.2 s in data set [8]; 6.4 s in data set [9]. Besides, the landing rate was determined as 13.4 in data set [4]; 21.2 in [5]; 24.2 in data set [6]; 22.7 in data set [7]; 1.61 in [8]; 4.07 in data set [9].

B3: Kat12 (domain or fragment)
chain: MSLLMISENVKLAREYALLGNYDSAMVYYQGVLDQMNKYLYSVKDTYLQQKWQQVWQEINVEAKHVKDIMKTLESFKLDSTPLKAAQHDLPASEGEVWSMPVPVERRPSPGPRKRQSSQYSDPKSHGNRPSTTVRVHRSSAQNVHNDRGKAVRCREKKEQNKGREEKNKSPAAVTEPETNK
In turn, B3 showed a half-maximal saturation (microtubule concentration) in [13] of 0.34 µM.

B4: Kat2 (domain or fragment)
chain: WQEINVEAKHVKDIMKTLESFKLDSTPLKAAQHDLPASEGEVWSMPVPVERRPSPGPRKRQSSQYSDPKSHGNRPSTTVRVHRSSAQNVHNDRGKAVRCREKKEQNKGREEKNKSPAAVTEPETNK
The molecule B4 displayed a half-maximal saturation (microtubule concentration) in data set [13] of 0.4 µM.
